Results on nine sequences are retold here after the DeepSol protein solubility set.

This series is described as follows: soluble on expression in E. coli; label from the status in PepcDB or PDB records.
For the sequence “SLQTEESICTKIMKELHSEDSPNALVIKNEHVKKCDTWPSGGEMVVKDLTVKYVDDGNAILENISFSISPGQRVGLLGRTGSGKSTLLSAFLRMLNIKGEIQIDGVSWNSMTLQEWRKAFGVITQKVFIFSGTFRQNLDPNGKWRDEEIWKVADQVGLKSVIEQFPGQLNFTLVDGGYVLSHGHKQLMCLARSVLSKAKIILLDQPSANLDPITYQVIRRVLRQAFAGCTVVLCEHRIEAMLDCQRFLVIEQGNVWQYESLQALLSEKSVFQRALSSSEKMKLFHGRHSSKQKPRTQITAVKEETEEEVQETRL”, the “soluble on expression in E. coli” value is recorded as “not soluble”. As for “SLQTLEKSVIGVRVAVEASPVGASRRAREGWRRPASRHEAGALPLPSEQHITFFKLRPGCLDFLRRVSQTFELYMYTMGTALHAATALRILDPKRRFFGRRVFSRQDAVNGLKAIERIFPHDQKMVLVVDDLECMWRYSPCCIKVQGYHYFADVSAADARRISPHSYTQWLSMARPFCNFLPSERIKLCRHVRRCLPSKDA”, the “soluble on expression in E. coli” value was “not soluble”. Consider “SLQVDASGHQILLNYRKERSLQEFVPQVSLTEVLTGKINANTVKNKIVLIGTTAESFEDYSFTPNITNQGAIRKYQVLSLQAQMISQLLSAALDGRSLIWAWSVWQETIWIWGWSLTGSLLAWYIR”, for which the “soluble on expression in E. coli” value is “not soluble”. In the case of “SLRECELYVQKHNIQALLKDSIVQLCTARPERPMAFLREYFEKLEKEEAK” it was “soluble”; in that of “SLRITAIREIAVPLQGNISNSLVSFAEHTVSLVALVSDVVRDGRPLIGYAFDSIGRYAQPGLMRERFIPRLLQAAPHELLDDGGQAFDPARASAIMLRNEKPGGHGDRAAAVGALELAFWDLNAKLRDEPAYCTIARHVGRPAQAGATQVYAAGGYYYDSGDPLQRLRDEFRGYLDQGFVKFKMKIGGASLADDLARIEAALGVAGEGANLAVDANGRFDLDTALAYARALEPYGLRWYEEIGDPLDYHLNSLVAQAYAGTIATGENLFSLPDVRNLLHFAGVRPGRDILQMDPGLSYGLTEYLRMMAAVEAAGFGRSCLHPHGGHLINLHIAAGLGLGGCEAYPGVFQPFGGYPAACALGAGQVRPTDAPGFGLEQKQELAPYISVLAHG”, “soluble”. In the case of “SLSDPIIDMHLHASAADEQGPPPLAMCAPINPMPTWDQRQPWTTGLIAMFKAPKCADPIWSPTTDDEIRDKTLAIMAKRNIIGVVSGPYKRVMAWRALAPDRVLPGLMPTMSDLSKPKVLLDDFGKAKAAGQLAVIGELGFQYEGIAPNDPRLENLWAAAEAADVPVAIHIGPGPPGVAYLPGGGYRARMSSPLLLEDVLVKHPKLRINVMHAGYPMLDDTLALLYAHPQVYVDTGVIVYSQPRPAFYRYLQTLVDAGFGERVMFGSDQMVWPETIERSIAVIDEAPFLSAQQKRDILYNNAARFLRLDEATQAKHRAM” it was “soluble”; in that of “SLSIKTILIDDEPKAIAILKNKIERLCPDLEIVATIEKPALAFDIINELQPQLVFIDIAMPGMSGFDVLEQFKKPQFEIIFATAFDQYALDAIKQCAIGYLVKPIDNEDLVEAVTNATTNIEQKNALVKNTQLLENINQENFHKKKIVIPSTDGLEFVKVKSITHCEGVDGYTKIHFTNRKPILSSSSIGHFKKLLSHPDFYHVHKSYVTNTNHIIKYLNDGYVTLTGDVTIPVARAKRAEFLEKFRNEG”, “not soluble”; in that of “SLSYTISRPINQLMLAMQKAESGDLTSRYEGEEQDEVGRLGRSFNTMIEQIGKLISLTERQERKKREAELHSLQANIKPHFLYNTLDTIQWMARKKNASDVADLVGALSKLFRIGLSKGGTIIPLVDEIEHIKNYLQIQSVRYKNKLNYSLVMPSNMERLSILKIVLQPIVENAIYHGIKERRGPGLITIEAERENDMLIIRIRDNGKGIKPETLQQLRTNVNLFLEKGDKEGGQRLTKGYGLINVHARLRLTFGEPYGVKIDSVFNEGTVVTIFHPILEGGVETKRA”, “soluble”. In the case of “SLTITVLQGGNVLDLERGVLLEHHHVVIDGERIVEVTDRPVDLPNAQAIDVRGKTVMPGFIDCHVHVLASNANLGVNATQPNILAAIRSLPILDAMLSRGFTSVRDAGGADWSLMQAVETGLVSGPRIFPSGKALSQTGGHGDFRPRGDLLEPCSCCFRTGAIARVVDGVEGVRLAVREEIQKGATQIKIMASGGVASPTDPIANTQYSEDEIRAIVDEAEAANTYVMAHAYTGRAIARAVRCGVRTIEHGNLVDEAAAKLMHEHGAFVVPTLVTYDALAKHGAEFGMPPESVAKVASVQQKGRESLEIYANAGVKMGFGSDLLGEMHAFQSGEFRIRAEVLGNLEALRSATTVAAEIVNMQGQLGVIAVGAIADLVVLDGNPLEDIGVVADEGARVEYVLQRGTLVKRQAGGR” it was “not soluble”.
